Experiment: soluble on expression in E. coli; label from the status in PepcDB or PDB records

Row | Sequence | soluble on expression in E. coli
1 | MGSDKIHHHHHHMSLLSVSDVGKAYKTYRSELQRIAHWFFLPTKASSEHWVLKHINFAIEPGEAIGIIGQNGAGKSTLLKMITGTLQPTQGRVQVNGRIAAILELGMGFNPELSGRQNVYHAAGLMGFDVQQINDVIDDIEAFAEIGEYFDEAVRTYSSGMQMRVAFAVATAFRPEILIVDEALSVGDSYFQHKSFERIREFQRLGTSLLIVSHDRGAIQSLCSRALLLENGSIIKDGPPEQVMDYYNALIAEKENSTVQVKQLADGTVQTQSGSGEATIGTVALYDMQGTPVEFVAVGDKVTLSVQVEVHAPIPELVVGYVIKDRLGQHVFGTNTHHLGKAQKALETGEKLEYRFDFEMNLGPGSYSVAVALHANEVHIGSNYEWRDLALVFNVVNTSKPQFVGMAWVPTAVECIR | not soluble
2 | SMKYKLNVLLAEIALIGTGNHYHEEANCIAEWLHLKGEEEAVQLIRLSSLMNRGDYASALQQGNKLAYPDLEPWLALCEYRLGLGSALESRLNRLARSQDPRIQTFVNGMREQLKT | soluble
3 | MGHHHHHHSHMVTMEELREMDCSVLKRLMNRDENGGGAGGSGSHGTLGLPSGGKCLLLDCRPFLAHSAGYILGSVNVRCNTIVRRRAKGSVSLEQILPAEEEVRARLRSGLYSAVIVYDERSPRAESLREDSTVSLVVQALRRNAERTDICLLKGGYERFSSEYPEFCSKTKALAAIP | not soluble
4 | MSLAVFAARKWKYNEDKMMTIVRIDAEARWSDVVIHNNTLYYTGVPENLDADAFEQTANTLAQIDAVLEKQGSNKSSILDATIFLADKNDFAAMNKAWDAWVVAGHAPVRCTVQAGLMNPKYKVEIKIVAAVEGHHHHHH | soluble
5 | MKEERRRLLAKVAYLHYVQGKSQTLISKEMNIYRTTVCRMLAKAKEEGIVRIEIADYDADLFALEEYVRQQYGLEKLDLVPNQVEDTPMDTLTNVAKTAAEVFRHVVKDGDKIGLSWGATLSCLMDELNPKAMKDVFIYPLAGGPSHINAKYHVNTLVYRLARIFHGNSAFMNAMVIQEDKHLAKGILQSKYFNDILTSWDQLDLALVGIGGEPNSLEQSQWRDLLTSSDHDQLKYEKAVGEVCCRFFDQAGQPVYTGLQDRTIGISLEQLRRVPKTMAVATGKHKAKAILAALKAGFINYLVTDKETMLAVLALDEDIDLNNVLL | not soluble
6 | MAHHHHHHMSLLKADQLRRDLFIKYSDKIAELLGETEECSPTEEQREKEEIETTEQRGLSSLPKRFRISYPRQHLLRQRAMQMPPAADVGDAENSPASASNSTCPPLGETATDEDENVETIWVELDEEEKRPVYNEPYPSVKRMMRRMQDESLRLLMREARIPVTPHQGDAYLLQRMEVLQQLEKNIGDDRIKILARLQKMDGKLHTCE | soluble
7 | MGSDKIHHHHHHMNTPLYKALIQHARRNSHSFHVPGHHNGDVFFDDAKSIFDPLLTIDVTELAGLDDLHHPSGVIKEAQELASQLYGSAESFFLVNGTTVGNLAMILSVCEPGDTILVQRNCHKSVFHAVDLSGAEPVYLAPDVDSAMHVPTHVPLGTIKEALEAYPDAKGLVLTNPTYYGHSADLTEIITEAHHYGIPVLVDEAHGAHFILGEPFPVSALKMGADIVVQSAHKTLPAMTMGSYLHLNSSCRINRDRVAEYLNRLQSSSPSYPIMASLDIARAYVQHIIEEQKLSDILQRIETLKQTFDSLTNAEAVNPANPLIITDPLKLTIRSKRGHSGYTLQSILERANIFTELADENQVLLVLPLGGKRRINAEIIRSIDEEIEKTPPDQTFVSAEWGVQPVTVLPYPKKVLHSFKKEYVSFEEAAGRLNAEDIIPYPPGIPMIMAGERITKESVQKLSRLISMKTHVQGNMKIKEKQLLVYIEEEKS | not soluble
8 | MSLDSQQKLAAQVTTPLTLSGDNQQAVAIFDQADPRIRIVYFGFTRCPDVCPTSLAMLSAALNQVDDKTKAQLRPMFISLDPERDDAKLAAQYAHYFHPMIEGLSGSVATTNQIAQKYGVIFRKTELPNSELKYTLDHSSYFYFLQPDGTLINKVPHTQDPTPIVDAIKKVIQEGHHHHHH | soluble
9 | MGSDKIHHHHHHIEPCADYTTRELDLRNEIKGAEELEEIKYEISKSFPMDELRFPKYWSDLSNQDVLVSEFIEGKSLEEGIEEKSLSWDTLLRLFRIHGAYLFGIGTFHGDLHPGNCIIDNDGKFVFIDNGAICHAPSKVNLSLFQFFENLSSNDFDAAFDSLLGLSDSPLKSTNLDNYYKEMNKIYDGFQNQTVGEKSLTRIMMQTVQAAVEKAGADFGEEAFPIIRALMYLDGLVLRTHPDVKLIESMGPYLEEFRLGLDLENKIKNV | not soluble
10 | GSPEETLVIALYDYQTNDPQELALRCDEEYYLLDSSEIHWWRVQDKNGHEGYAPSSYLVEKSP | soluble
11 | MFGFSNSDISVSSGHTSHLDEVLPQSMYMVDADGRMVRWSPWFRDRIAGFSDAEMASTDFLELIHPEDRALVRQRMRKILDQGVQDSLEVRIFLKGGPAFRWFLLMANRYEYAGHYFITGTGIDIT | not soluble
12 | MGSDKIHHHHHHMCRLSLLKSSHLFKEQLLAASYSIQCVSQIAILGAPLWNALMAGANRQDQNGPANPFCRYEYLHALELSGCVGEQTGWRPMHLVVSEAGQIGENNQASAQGGDRQIDPSKVLAVMPLYLKGHSYGEYVFDWAWAQAYERHGLEYYPKLVNAIPFTPVTGSRIGFRVDLSEAQKAGLIGKIGEHLDLLTKACSASSWHSLFLLESERQPLVSKGHLQRLGTQFHWFNRDYQSFDDFLSRLTSRRRKSILKERRAITKAGLKFHFIDGAEITEDELTHFVHCYQRTYYKRSGHQGYLNAAFFSAVVKNMADKVRLLMVERPQANKLEAQAGSDARSEVGSAQEIEPIAAALYFVGGDCLYGRYWGALEEIEGLHFETCYYQGIDYAIAQRLKKFDAGAQGEHKVLRGFEPIPTYSIHEILHGDFRRAIADFIEQEARAVKIYMNELEAILPFKREGD | not soluble
13 | GMSYQNANYSAFYVSEPFSESNLGANSTHDFVYYNMLRMWKGEDNSFPFNDAHDKTYNVRDGSDWEKTLKPRLHTRLDNSKNIILFLSSITANSRALREEMNYGIGTKGLPVIVIYPDYDKKSDIVDSNGNFKKQIKDLWDKLPAFRDNMSSVATLHIPCTKSVIISALNNEDFMVNTMADAEKYYYKP | soluble
14 | MGHHHHHHSHMRPELLEYYIKVILDYNTAHNKVALSECYTVASVAEMPQNYRPHPQRFTYCSQVLGLHCYKKGIHYWEVELQKNNFCGVGICYGSMNRQGPESRLGRNSASWCVEWFNTKISAWHNNVEKTLPSTKATRVGVLLNCDHGFVIFFAVADKVHLMYKFRVDFTEALYPAFWVFSAGATLSICSPK | not soluble
15 | MLCAKNKKDPKPPPASFSETSKVQNVQNTQPKPAAPSQMSIDESHSKNQKLPSAEKSVEECKKPVSPEKKKSPIKVLSEKKLKSKKKEEDKEPDEKVEKDVKKEVKADNNEPLVKNLKIAKKEQEEENPKTDLESHKDEAEAKKKESRRQKKMRNKNSKEGSVEKMEKSEKAY | not soluble
16 | MAIALVTGGSRGIGRATALLLAQEGYTVAVNYQQNLHAAQEVMNLITQAGGKAFVLQADISDENQVVAMFTAIDQHDEPLAALVNNAGILFTQCTVENLTAERINRVLSTNVTGYFLCCREAVKRMALKNGGSGGAIVNVSSVASRLGSPGEYVDYAASKGAIDTLTTGLSLEVAAQGIRVNCVRPGFIYTEMHASGGEPGRVDRVKSNIPMQRGGQAEEVAQAIVWLLSDKASYVTGSFIDLAGGK | not soluble
17 | MSLSKKPCAHIDCELEGGFERSIWIPVRVARLYVKNRPDLPCDWDNFREAVQLIERQCALTMVTEMLSRRDHATGEVCDKLARYGFHQPAIDFAVERATEYHFLDENRFCSYFIEERKRRGWGQRKIETELKRRHVVLDDIPGYPEDYFAVEDDLARASALLAKRRVPETRGFEKLVRFLMGKGFSYHIAADAVKARLDAEREEGHHHHHH | not soluble
18 | MATQGAWLRMTSSAKSMTKSTVTSKELGFLTSQLSGLRISYTPSDVINRISLPSFPGIQPIVARRICPFTGKKANRANKVSFSNHKTKKLQFVNLQYKRVWWEAGKRFVKLRLSTKALKTIEKNGLDAVAKKAGIDLRKKLEHHHHHH | not soluble
19 | MDIETIVNEFETRAGTLLRYYTGLLERSKVQPCCFKLYNDPFDMVYVMMNSKLFSHVYIKDCKVRQSFELASPKHTEGLIRSIEGHYVGYELHDGKQLSISDMMASQLFEDEYFMYGLQTYAESNNSDVFKCLENGFDTDTLEGIQSSNTDVIANIEMLYQLATGINEPVPELVEGLKLVTEFVQDENATQEDYKALERKLNDLKASYYSLSKLAAALEHHHHHH | soluble
20 | MGSDKIHHHHHHNRASAQTVSEKDATSTQAPVFLTYTVTKENETVEIVGQVTADTKKVTSKVSGDVLEIYVEEGDVVQVGQKIAKIDDTDYQISYLSALNSYKTSPTEINRLNLEKAKENLENTTVVSPVSGVVQAVNVDVGDRVSVGTSIVTIVETDTLRVEGSISEYDLKNVKEGMKAVFTFEQLGLTLTGKVKRISPVAETSGGVTVIPVEFSFDQTPPSLVIPGLTCDVEIIIKEATSSFFIPKEAVRQDQNGYYVMKQTPQGPQKVYVELGEELNDKIEIKKGVSEGDVLLLIPSQQEIQRLRTRQGLPMFGPGGGRAR | not soluble
21 | MNRMDNDLLAIQEARILIENAREAQKALATFSQEKLDRIVERMAGEVVKYARELAMMSHEETGFGKWQDKYIKNIFASDFLCKKIRKMKVVGIIAEDKENQTLDVGVPVGVIVALLPSTNPVSTAIYKTLIAIKSGNAIVFSPHPKAKKTTRRVLEILVRTAEASGLPCGAIGYQRTQALEGTLGLMNHKDTALIIVTGVPKLVKAAYAAGKPTIYGGPGNGPAFIERSADIKQAVADIITSRTFDHGIVSASEQSVVAEECIADEVRQELRGNGGYFLSEEEAEQLGKLFLRPDGSVNPDIVGKSAVELARKIGITVSENTKVLISEQKFVSPTNPYAKEKLCPVLAFYVEKDWFNACEKCIELLLNDGRGHTLVIHSRNEQVIREFALKKPVSRVLVNTPATLGGIGGTTNLFPALTLGCGAVGGGFTSDNVSPLNLINIRKVGYGVRKLEDITCGVQAESVGSSESAGLTRLTGLNGSLCPGPGYPKERTQDLNELLETLLEQLLPYRNA | not soluble
22 | MTNDFATVLRQFVEGLDLGIKPRLDYLTRQEDLAIYPMPGGKVNNEYMDGTREISLPFEIAIKTKNQELASTVMWTINSALSNFDLKLPSLNHSYTFISLDVEKPFLNDLSDQGFYIYVLDITAHLEIEGNN | soluble
23 | MKNIVSAFGIIPRNNRLMYIHSYQSYVWNTMVSRRIEEYGLRPVPGDLVLKGATPTYIEEDDVDNYSIHDVVMPLPGFDVIYPKHKISEAYREMLAADNLDIDNMRHTIRDYSLSGAYRRIIIRPQSVSWEVVAYDDPKIPLFNTDVDNLEGKPPPVFASEGKYRALKMDFSLPPSTYATMAIREVLKMDTSIKNQTQLNTSWLR | not soluble
24 | MGSDKIHHHHHHMNKSIFDDINSTNIGSYWTTLSQQMDPYLWETLMPNSKQIASDFVFYRGMSNAPKPLAPSAFGVPAIMRKRSGFDRVSDHTRYFKEGYYIDEAIRQQLLRVGANATQAEKDMINNHIFQDSMELLKGAQLTREIMRNQIIQTGKINVIGNGQTITADYQMKASHRVVNDKAWGTTGSTPFEDIQKARDLVGDDSDQVITRAVMNKATFNALMSDTNVKSTMLYDNGKLANVTIPQSELLNFLVTNYGLTVQIYDKRYMDIDGTKKKWIPDGRVIFLPDGELGKTIMSTTPEEADLAAASDVDMTLVDNGVAITTMLDSDPVNKKINVSQEVMPSFPQIDGIYILDAFAKTGTDPLATTPTAPASTTTTTDPKA | not soluble
25 | GMWSYDKITDYLMNNLGEKRYKHSLGVMDTAVRLAGIYNEDTEKARIAGLVHDCAKKLPGEKIIEICTNEGYELGDEDIRNSYLLHGLAGRILAKKVIGIDDEDVLNAIEFHTTGRPNMSLLEKIIYIADYIEPGREFKGVDELRKAADEDLNKALLMSFDNTIKFVIDKGGFLHHNTIEARNYLISRKG | soluble

Source: the DeepSol protein solubility set
